US6127144, “Method for expression of proteins in bacterial host cells” (Cangene Corporation, dated 2000)
Values belong to the molecule of their own block, whether it stands above or below them. No end group written: not given here. *: point of attachment. CH2Cl = ClC*

What was measured:
[1] = biological target: tripeptidyl aminopeptidase-S (Tap) of Streptomyces lividans 66 (Streptomyces lividans 66)
[2] = biological target: T1, tripeptidyl aminopeptidase-S (Tap) of Streptomyces lividans 66 (Streptomyces lividans 66); assay: inactivation kinetics of purified Tap on ice, residual activity with APA-pNA (Example 8)
T1 chain: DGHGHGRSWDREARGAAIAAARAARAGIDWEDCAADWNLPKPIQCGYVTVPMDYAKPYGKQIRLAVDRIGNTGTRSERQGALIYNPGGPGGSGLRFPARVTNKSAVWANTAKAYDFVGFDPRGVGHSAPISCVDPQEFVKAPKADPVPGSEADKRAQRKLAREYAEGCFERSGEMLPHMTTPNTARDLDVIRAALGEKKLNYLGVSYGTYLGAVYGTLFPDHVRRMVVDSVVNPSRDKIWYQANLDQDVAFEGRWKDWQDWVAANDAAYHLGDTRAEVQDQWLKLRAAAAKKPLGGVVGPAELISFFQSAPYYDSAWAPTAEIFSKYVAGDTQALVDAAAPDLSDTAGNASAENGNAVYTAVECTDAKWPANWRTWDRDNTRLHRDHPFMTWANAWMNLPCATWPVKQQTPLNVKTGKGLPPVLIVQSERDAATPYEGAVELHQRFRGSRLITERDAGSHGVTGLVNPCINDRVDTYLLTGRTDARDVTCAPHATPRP
Procedure: A stock solution of 1.1 uM Tap in 50 mM Tris-HCl, pH 8.0 was prepared. APACMK stock solutions of 11 uM, 13.8 uM, 17.3 uM, 21.7 uM, 27.0 uM, 54.0 uM, 108 uM, and 1.08 mM were prepared. The Substrate Solution was 50 mM Tris-HCl, pH 8.0, 0.8 mM APA-pNA. The inactivation was performed by placing 90 ul of Tap […] in a 1.5 ml Eppendorf tube on ice and adding 10 ul of water (uninhibited control) or 10 ul of APACMK. A 10 ul aliquot was removed immediately and was assayed by adding it to a cuvette containing 390 ul Substrate Solution at 22° C. The initial velocity was obtained from the change in absorbance at 405 nm during the first 10 seconds of the assay. Additional aliquots were removed at time points and assayed by the same method. At APACMK concentrations greater than 5.0 uM in the incubation, it was not possible to remove an aliquot from the incubation before 90% inactivation occurred.

[3] = biological target: T2, D-phenylalanyl-L-prolyl-L-arginine beta-napthylamide
T2 sequence (peptide, D-phenylalanine at position 1; C-terminal beta-naphthylamide): FPR

GPM-bNA = biological target: T3, GPM-bNA
T3 sequence (peptide, C-terminal beta-naphthylamide): GPM

[4] = biological target: T4, L-alanyl-L-prolyl-L-phenylalanine beta-naphthylamide
T4 sequence (peptide, C-terminal beta-naphthylamide): APF

A405, APA-bNA assay on 20 µl cell-free broth (APA-bNA): 1.15 A405
A540, Boc-APARSPA-bNA assay on 20 µl cell-free broth (Boc-APARSPA-bNA): 0.278 A540
Molecule: soluble SlpD secreted from AP6.SlpD (enzyme)

A540, Boc-APARSPA-bNA assay on 20 µl cell-free broth (Boc-APARSPA-bNA): 0.084 A540
Molecule: soluble SlpE secreted from AP6.SlpE (enzyme)

inactivation of Tap, residual activity assayed with APA-pNA [1]: > 99%
kinact [1]: 0.14 min⁻¹
Ki [2]: 3.3 µM
B1: L-alanyl-L-prolyl-L-alanine chloromethylketone (peptide)
peptide: Ala-Pro-Ala-CH2Cl
modifications: also: hydrochloride salt

Tripeptidyl Aminopeptidase Activity (A540 above background) (A540 above background) [3]: 0.02
Tripeptidyl Aminopeptidase Activity (A540 above background) (A540 above background) (GPM-bNA): > 3
Tripeptidyl Aminopeptidase Activity (A540 above background) (A540 above background) [4]: > 3
B2: tripeptidyl aminopeptidase-S (Tap) of Streptomyces lividans 66 (enzyme)
chain: DGHGHGRSWDREARGAAIAAARAARAGIDWEDCAADWNLPKPIQCGYVTVPMDYAKPYGKQIRLAVDRIGNTGTRSERQGALIYNPGGPGGSGLRFPARVTNKSAVWANTAKAYDFVGFDPRGVGHSAPISCVDPQEFVKAPKADPVPGSEADKRAQRKLAREYAEGCFERSGEMLPHMTTPNTARDLDVIRAALGEKKLNYLGVSYGTYLGAVYGTLFPDHVRRMVVDSVVNPSRDKIWYQANLDQDVAFEGRWKDWQDWVAANDAAYHLGDTRAEVQDQWLKLRAAAAKKPLGGVVGPAELISFFQSAPYYDSAWAPTAEIFSKYVAGDTQALVDAAAPDLSDTAGNASAENGNAVYTAVECTDAKWPANWRTWDRDNTRLHRDHPFMTWANAWMNLPCATWPVKQQTPLNVKTGKGLPPVLIVQSERDAATPYEGAVELHQRFRGSRLITERDAGSHGVTGLVNPCINDRVDTYLLTGRTDARDVTCAPHATPRP
